Laboratory results as given in patent US20090274682.
Where a chain is given by its changes, count along the chain named. Numbers in names are those of the source.

Experiments:
[1] = molecular target: PP2A core enzyme (AC heterodimer) involving the full-length A subunit
[2] = molecular target: PP2A core enzyme involving full-length Cα and AΔN, methylated by LCMT1
[3] = molecular target: PP2A core enzyme variant involving truncation of the carboxy-terminus of the catalytic subunit (two C-terminal amino acids removed by chymotrypsin)
Sequence of PP2A core enzyme variant involving truncation of the carboxy-terminus of the catalytic subunit (two C-terminal amino acids removed by chymotrypsin) (chain, as listed by the source mutant, chain 1 of 2): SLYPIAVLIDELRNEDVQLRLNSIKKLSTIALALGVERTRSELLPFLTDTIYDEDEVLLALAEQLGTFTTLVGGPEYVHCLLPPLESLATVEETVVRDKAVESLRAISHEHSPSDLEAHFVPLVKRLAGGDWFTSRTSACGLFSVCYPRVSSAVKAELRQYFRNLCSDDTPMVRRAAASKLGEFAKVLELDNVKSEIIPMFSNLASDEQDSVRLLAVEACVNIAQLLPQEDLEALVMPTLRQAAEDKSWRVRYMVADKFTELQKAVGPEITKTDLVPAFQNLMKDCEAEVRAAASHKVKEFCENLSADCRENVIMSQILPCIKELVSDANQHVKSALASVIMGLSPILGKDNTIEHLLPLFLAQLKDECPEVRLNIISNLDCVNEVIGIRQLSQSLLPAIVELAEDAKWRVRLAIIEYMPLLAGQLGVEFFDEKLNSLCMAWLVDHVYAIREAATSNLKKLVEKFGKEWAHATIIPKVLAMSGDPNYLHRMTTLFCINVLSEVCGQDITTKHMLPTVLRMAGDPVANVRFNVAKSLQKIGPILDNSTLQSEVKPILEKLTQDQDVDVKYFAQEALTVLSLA
Sequence of PP2A core enzyme variant involving truncation of the carboxy-terminus of the catalytic subunit (two C-terminal amino acids removed by chymotrypsin) (chain, as listed by the source mutant, chain 2 of 2): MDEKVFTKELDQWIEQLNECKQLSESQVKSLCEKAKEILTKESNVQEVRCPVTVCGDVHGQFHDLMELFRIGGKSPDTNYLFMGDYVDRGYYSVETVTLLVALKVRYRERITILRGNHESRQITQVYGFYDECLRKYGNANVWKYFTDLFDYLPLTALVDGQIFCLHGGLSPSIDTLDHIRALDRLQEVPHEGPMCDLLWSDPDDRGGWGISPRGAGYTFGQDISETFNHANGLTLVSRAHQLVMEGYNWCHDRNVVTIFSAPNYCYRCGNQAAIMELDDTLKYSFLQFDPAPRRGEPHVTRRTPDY

Sequence of PP2A core enzyme (AC heterodimer) involving the full-length A subunit (chain, as listed by the source, chain 1 of 2): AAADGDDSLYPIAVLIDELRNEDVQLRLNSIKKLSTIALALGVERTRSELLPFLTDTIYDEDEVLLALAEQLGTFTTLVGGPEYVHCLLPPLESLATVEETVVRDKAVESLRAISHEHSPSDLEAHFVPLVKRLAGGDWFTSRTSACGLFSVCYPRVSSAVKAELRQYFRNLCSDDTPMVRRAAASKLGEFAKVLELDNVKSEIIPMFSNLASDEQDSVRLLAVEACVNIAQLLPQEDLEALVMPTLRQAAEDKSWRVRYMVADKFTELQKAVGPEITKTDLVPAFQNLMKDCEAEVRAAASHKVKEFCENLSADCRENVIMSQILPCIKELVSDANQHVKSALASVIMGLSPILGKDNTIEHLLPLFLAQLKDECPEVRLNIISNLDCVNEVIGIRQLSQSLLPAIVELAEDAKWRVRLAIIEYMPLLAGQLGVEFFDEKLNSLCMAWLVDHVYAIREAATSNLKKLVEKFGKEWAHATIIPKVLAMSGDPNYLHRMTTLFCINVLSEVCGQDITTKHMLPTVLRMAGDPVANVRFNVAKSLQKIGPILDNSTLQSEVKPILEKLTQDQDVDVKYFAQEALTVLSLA
Sequence of PP2A core enzyme (AC heterodimer) involving the full-length A subunit (chain, as listed by the source, chain 2 of 2): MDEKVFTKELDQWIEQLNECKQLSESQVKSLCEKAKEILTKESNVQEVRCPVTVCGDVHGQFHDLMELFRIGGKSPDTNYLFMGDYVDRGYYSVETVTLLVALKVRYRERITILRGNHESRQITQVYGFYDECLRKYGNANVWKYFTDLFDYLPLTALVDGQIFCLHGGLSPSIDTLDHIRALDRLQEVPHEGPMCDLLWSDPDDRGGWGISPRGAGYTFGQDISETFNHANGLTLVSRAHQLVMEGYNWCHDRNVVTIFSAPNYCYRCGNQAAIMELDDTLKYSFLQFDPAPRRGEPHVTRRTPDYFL
Sequence of PP2A core enzyme involving full-length Cα and AΔN, methylated by LCMT1 (chain, as listed by the source mutant, chain 1 of 2): as the sequence (chain, as listed by the source mutant, chain 1 of 2) above
Sequence of PP2A core enzyme involving full-length Cα and AΔN, methylated by LCMT1 (chain, as listed by the source mutant, chain 2 of 2): as the sequence (chain, as listed by the source, chain 2 of 2) above

B1: Full-length PME-1 (1-386) (protein)
chain: MSALEKSMHLGRLPSRPPLPGSGGSQSGAKMRMGPGRKRDFSPVPWSQYFESMEDVEVENETGKDTFRVYKSGSEGPVLLLLHGGGHSALSWAVFTAAIISRVQCRIVALDLRSHGETKVKNPEDLSAETMAKDVGNVVEAMYGDLPPPIMLIGHSMGGAIAVHTASSNLVPSLLGLCMIDVVEGTAMDALNSMQNFLRGRPKTFKSLENAIEWSVKSGQIRNLESARVSMVGQVKQCEGITSPEGSKSIVEGIIEEEEEDEEGSESISKRKKEDDMETKKDHPYTWRIELAKTEKYWDGWFRGLSNLFLSCPIPKLLLLAGVDRLDKDLTIGQMQGKFQMQVLPQCGHAVHEDAPDKVAEAVATFLIRHRFAEPIGGFQCVFPGC
- LCMT1-catalyzed methylation [1]: the stable complex between PP2A and PME-1 blocks LCMT1-catalyzed methylation (data not shown)
- phosphatase activity after incubation at 37° C. [1]: A prolonged incubation time was required for substantial loss of the phosphatase activity in vitro
- phosphatase activity towards phosphorylase a upon initial incubation [1]: The PP2A core enzyme, upon initial incubation with various concentrations of PME-1, exhibited full phosphatase activity towards the substrate phosphorylase a
- methylesterase activity of PME-1 [2]: The methylesterase activity of PME-1 on the PP2A core enzyme involving the AΔN variant was nearly identical to that on the PP2A core enzyme involving the full-length A subunit
- methylesterase activity of PME-1 after pre-incubation with the PP2A variant and PMSF [3]: pre-incubation with the PP2A variant and PMSF led to marked reduction of PME-1-mediated methylesterase activity

B2: PME-1 R369D (protein)
chain: B1 chain with R369D
- methylesterase activity [1]: R369D in PME-1 resulted in marked reduction of its methylesterase activity

B3: PME-1 M335D (protein)
chain: B1 chain with M335D
- Mn2+ bound (ICP-MS) and phosphatase activity with or without manganese chloride [1]: mutation of Met335 to aspartate in PME-1 led to decreased ability to remove the metal ions, and the PP2A-PME-1-M335D complex became readily activated by manganese
